Data reported in article PMC5758831, “A proline deletion in IFNAR1 impairs IFN-signaling and underlies increased resistance to tuberculosis in humans” (Nature Communications, 2018).

Tests used:
[1] = molecular target: T1, hIFNAR1-ECD-Del (extracellular domain of human IFNAR1 with the Pro335 deletion) (human, UniProt P17181 28-424, delete P335); test: SPR; ProteOn XPR36, HTG chip; His-tagged hIFNAR1-ECD or hIFNAR1-ECD-Del (25 µg/ml in TBS) immobilised on the nickel activated chip; ReBif (hIFN-β) in TBS as analyte at various concentrations; TBS running buffer; Langmuir binding model; in the absence of IFNAR2; conditions: both partners purified
T1 construct: Naturally occurring variant, made by site-directed mutagenesis of hIFNAR1-ECD; N-terminal 6xHis by the cloning paragraph, C-terminal His-tag by the SPR paragraph; also called IFNAR1Del; not shown: 6xHis, N-terminal, kept
T1 sequence (looked up): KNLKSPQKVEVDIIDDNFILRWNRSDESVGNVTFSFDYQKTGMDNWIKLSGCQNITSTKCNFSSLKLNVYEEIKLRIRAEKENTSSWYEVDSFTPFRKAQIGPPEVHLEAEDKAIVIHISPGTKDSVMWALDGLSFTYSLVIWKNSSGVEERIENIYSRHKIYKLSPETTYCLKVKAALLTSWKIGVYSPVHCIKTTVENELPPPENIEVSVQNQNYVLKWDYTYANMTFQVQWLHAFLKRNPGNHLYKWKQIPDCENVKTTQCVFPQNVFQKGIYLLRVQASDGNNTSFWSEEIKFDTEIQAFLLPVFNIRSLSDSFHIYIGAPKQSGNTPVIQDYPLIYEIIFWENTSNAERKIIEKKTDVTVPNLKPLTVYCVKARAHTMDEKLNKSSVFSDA

[2] = molecular target: T2, hIFNAR1-extracellular domain (ECD) (human, UniProt P17181 28-424); test: as above; conditions: both partners purified
T2 construct: interferon alpha and beta receptor subunit 1 (IFNAR1), human, extracellular domain, amino acids 28-424 of hIFNAR1 (GenBank CAA42992.1); The cloning paragraph says N-terminal 6xHis tag (modified pFastBac-1); the SPR paragraph says capture by C-terminal His-tags; The reverse primer encodes ...PGNTSK-stop; also called hIFNAR1-ECD; WT IFNAR1-ECD; not shown: 6xHis, N-terminal, kept
T2 sequence (looked up): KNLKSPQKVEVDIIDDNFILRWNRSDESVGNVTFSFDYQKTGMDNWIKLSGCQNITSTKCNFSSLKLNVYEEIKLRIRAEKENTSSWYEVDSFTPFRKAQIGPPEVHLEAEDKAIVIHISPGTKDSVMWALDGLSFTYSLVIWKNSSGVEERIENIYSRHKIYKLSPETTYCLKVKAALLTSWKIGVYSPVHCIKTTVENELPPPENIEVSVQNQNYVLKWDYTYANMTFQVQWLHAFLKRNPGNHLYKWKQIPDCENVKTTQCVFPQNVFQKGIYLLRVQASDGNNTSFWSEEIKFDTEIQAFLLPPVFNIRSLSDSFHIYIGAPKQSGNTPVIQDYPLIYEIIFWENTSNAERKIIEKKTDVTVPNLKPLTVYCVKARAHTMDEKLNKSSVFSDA

B1: human IFN-β (ReBif) (ligand, UniProt P01574 22-187, looked up)
chain: MSYNLLGFLQRSSNFQCQKLLWQLNGRLEYCLKDRMNFDIPEEIKQLQQFQKEDAALTIYEMLQNIFAIFRQDSSSTGWNETIVENLLANVYHQINHLKTVLEEKLEKEDFTRGKLMSSLHLKRYYGRILHYLKAKEYSHCAWTIVRVEILRNFYFINRLTGYLRN
notes: interferon beta, human; the drug product ReBif; also called hIFN-β; source: ReBif (hIFN-β), dialyzed into TBS
Kd [1]: 28.1 nM
Kd [2]: 15.8 nM
